Patent US20230049152A1 (Genentech, published 2023)
Changes are numbered by the printed parent chain.

B1: rb.Ab4 (antibody, V domains shown)
VH: QSVEESGGRLVTPGTPLTLTCTVSGFSLSNYAMIWVRQAPGEGLEWVGTISLGGYTYYANWAKGRFTISKTSTTVDLKISSPTTEDTATYFCARARWSTDSAIYTYAFDPWGPGTLVTVSS
VL: AYDMTQTPASVEVAVGGTVTIKCQASQSISSYLSWYQQKPGQRPELLIYKASTLASGVSSRFKGSGSGTQFTLTISDLECADAATYYCQQGYTSSNIDNIFGGGTEVVVK
notes: Rabbit variable regions; also called parental rabbit antibody Ab4
B2: hu.Ab4.H1L2 (antibody, human IgG1, kappa)
heavy: not shown
light: DIQMTQSPSSLSASVGDRVTITCQASQSISSYLSWYQQKPGKRPKLLIYKASTLASGVPSRFSGSGSGTDFTLTISSLQPEDFATYYCQQGYTSSNIDNIFGGGTKVEIKRTVAAPSVFIFPPSDEQLKSGTASVVCLLNNFYPREAKVQWKVDNALQSGNSQESVTEQDSKDSTYSLSSTLTLSKADYEKHKVYACEVTHQGLSSPVTKSFNRGEC
B3: hu.Ab4.H1L4 (antibody, human IgG1, kappa)
heavy: not shown
light: B2 light with R43A
B4: hu.Ab4.H1L3 (antibody, human IgG1, kappa)
heavy: not shown
light: B2 light with I2Y, R43A
B5: hu.Ab5.H6L1 (antibody, human IgG1, kappa, V domains shown)
VH: EQQLLESGGGLVQPGGSLRLSCAVSGIDLSTYAMGWVRQAPGKGLEWIGLIHRSGRTYYATWAKGRFTISRDSSKTTVYLQMNSLRAEDTAVYFCTRSYPDYSATASIWGPGTTVTVSS
VL: DIQVTQSPSSLSASVGDRVTITCQASENIANALAWYQQKPGKPPKFLIYGASNLASGVPSRFSGSGSGTDFTFTISSLQPEDIATYYCQQAYYGNSFVEGTFGGGTKVEIKR
B6: hu.Ab5.H2L1 (antibody, human IgG1, kappa)
heavy: not shown
light: DIQVTQSPSSLSASVGDRVTITCQASENIANALAWYQQKPGKPPKFLIYGASNLASGVPSRFSGSGSGTDFTFTISSLQPEDIATYYCQQAYYGNSFVEGTFGGGTKVEIKRTVAAPSVFIFPPSDEQLKSGTASVVCLLNNFYPREAKVQWKVDNALQSGNSQESVTEQDSKDSTYSLSSTLTLSKADYEKHKVYACEVTHQGLSSPVTKSFNRGEC
B7: hu.Ab5.H9L1 (antibody, human IgG1, kappa, V domains shown)
VH: B5 VH with R71K, V78L
VL: B5 VL
B8: hu.Ab5.H12L1 (antibody, human IgG1, kappa, V domains shown)
VH: B5 VH with Q2V, V24A, I48V, G49S, S73N, T76N, V78L, F94Y, P111Q
VL: B5 VL
B9: hu.Ab5.H11L1 (antibody, human IgG1, kappa)
heavy: not shown
light: B6 light
B10: hu.Ab5.H3L1 (antibody, human IgG1, kappa, V domains shown)
VH: B5 VH with V24A, R71K
VL: B5 VL
B11: hu.Ab5.H4L1 (antibody, human IgG1, kappa, V domains shown)
VH: B5 VH with I48V, R71K
VL: B5 VL
B12: hu.Ab5.H8L1 (antibody, human IgG1, kappa, V domains shown)
VH: B5 VH with R71K, T76N
VL: B5 VL
B13: hu.Ab5.H10L1 (antibody, human IgG1, kappa, V domains shown)
VH: B5 VH with R71K, F94Y
VL: B5 VL
B14: hu.Ab5.H5L1 (antibody, human IgG1, kappa, V domains shown)
VH: B5 VH with G49S, R71K
VL: B5 VL
B15: hu.Ab5.H7L1 (antibody, human IgG1, kappa, V domains shown)
VH: B5 VH with R71K, S73N
VL: B5 VL
B16: hu.Ab5.H1L2 (antibody, human IgG1, kappa)
heavy: not shown
light: B6 light with V4M
B17: hu.Ab4.H4L1 (antibody, human IgG1, kappa, V domains shown)
VH: EQQLLESGGGLVQPGGSLRLSCAVSGFSLSNYAMIWVRQAPGKGLEWVSTISLGGYTYYANWAKGRFTISKDSSKTTVYLQMNSLRAEDTAVYFCARARWSTDSAIYTYAFDPWGPGTLVTVSS
VL: DYQMTQSPSSLSASVGDRVTITCQASQSISSYLSWYQQKPGKRPKLLIYKASTLASGVPSRFSGSGSGTDFTLTISSLQPEDFATYYCQQGYTSSNIDNIFGGGTKVEIKR
B18: hu.Ab4.H11L1 (antibody, human IgG1, kappa, V domains shown)
VH: B17 VH with Q2V, V24A, K71R, S73N, T76N, V78L, F94Y, P116Q
VL: B17 VL
B19: hu.Ab4.H7L1 (antibody, human IgG1, kappa, V domains shown)
VH: B17 VH with S49G, T76N
VL: B17 VL
B20: hu.Ab4.H8L1 (antibody, human IgG1, kappa, V domains shown)
VH: B17 VH with S49G, V78L
VL: B17 VL
B21: hu.Ab4.H2L1 (antibody, human IgG1, kappa)
heavy: not shown
light: B2 light with I2Y
B22: hu.Ab4.H3L1 (antibody, human IgG1, kappa, V domains shown)
VH: B17 VH with V24A, S49G
VL: B17 VL
B23: hu.Ab4.H10L1 (antibody, human IgG1, kappa)
heavy: not shown
light: B2 light with I2Y
B24: hu.Ab4.H6L1 (antibody, human IgG1, kappa, V domains shown)
VH: B17 VH with S49G, S73N
VL: B17 VL
B25: hu.Ab4.H5L1 (antibody, human IgG1, kappa, V domains shown)
VH: B17 VH with S49G, K71R
VL: B17 VL
B26: hu.Ab4.H9L1 (antibody, human IgG1, kappa, V domains shown)
VH: B17 VH with S49G, F94Y
VL: B17 VL

biological target: T1, human CCR8 (human, UniProt P51685 1-355); assay: flow cytometry, CHO-huCCR8.Gna15 cells, relative to rb.Ab4
T1 construct: the assay field says which; also called hCCR8; huCCR8
Method: (§1) Evaluation of CCR8 binding of the humanized variants with a hIgG1 Fc involved screening by flow cytometry, and comparing the relative EC₅₀ and MFI on human CCR8 CHO cells to the parental rabbit antibodies. Specifically, stable CHO-huCCR8.Gna15 cells were stained with various concentrations (starting from 10 ug/ml or 66.66 nM, 1:4 serial dilution for total 8 concentration points) of Ab4 and Ab5 variants at 4° C. for 30 minutes, then washed twice with FACS buffer (PBS with 0.5% BSA and 0.2 mM EDTA) and followed by staining with AF647-anti-hIgG at 4° C. for 15 min. Cells were washed twice with FACS buffer, and re-suspended in FACS buffer with propidium iodide (0.5 ug/ml) and analyzed with iQue3 (Sartorius).

| Relative EC50 [ratio] | Relative MFI [ratio] | Binder |
| --- | --- | --- |
| 1 | 1 | B1 |
| 1.06 | 0.73 | B2 |
| 1.04 | 0.8 | B3 |
| 1.23 | 1 | B4 |

biological target: T1, human CCR8; assay: flow cytometry, CHO-huCCR8.Gna15 cells, relative to rb.Ab5
Method: as §1

| Relative EC50 [ratio] | Relative MFI [ratio] | Binder |
| --- | --- | --- |
| 2.4 | 0.97 | B5 |
| 1.1 | 0.93 | B6 |
| 1.3 | 0.92 | B7 |
| 2.3 | 0.26 | B8 |
| 1.3 | 0.87 | B9 |
| 1.5 | 1 | B10 |
| 1.5 | 0.95 | B11 |
| 1.4 | 0.94 | B12 |
| 1.2 | 0.87 | B13 |
| 7.6 | 0.35 | B14 |
| 2.2 | 0.96 | B15 |

biological target: T1, human CCR8; assay: as above; remark: another data set of the same source
Method: as §1

| Relative EC50 [ratio] | Relative MFI [ratio] | Binder |
| --- | --- | --- |
| 1.4 | 0.79 | B16 |

biological target: T1, human CCR8; assay: flow cytometry, CHO-huCCR8.Gna15 cells, relative to rb.Ab4; remark: another data set of the same source
Method: as §1

| Relative EC50 [ratio] | Relative MFI [ratio] | Binder |
| --- | --- | --- |
| 1 | 1 | B1 |
| 0.96 | 1.06 | B17 |
| 0.88 | 0.66 | B18 |
| 1.05 | 0.44 | B19 |
| 1.03 | 0.72 | B20 |
| 0.99 | 1.07 | B21 |
| 1 | 1.02 | B22 |
| 1.07 | 0.77 | B23 |
| 1.06 | 0.68 | B24 |
| 1.02 | 0.9 | B25 |
| 1.04 | 0.87 | B26 |
